Sequences and labels used below:
B3: Alexa Fluor 488-TPX2_((7–43)) peptide (peptide)
peptide: LSYSYDAPSDFINFSSLDDEGDTQNIDSWFEEKANLENLKGGGC(Alexa Fluor 488‑maleimide)QM
notes: residue before the TPX2 stretch in the printed peptide; TPX2, human, residues 7-43; C-terminal extension of the printed peptide with the cysteine that is labelled; As m10, labelled; the methods speak of 'free N-terminal cysteines' but the only cysteine of the printed peptide is near its C-terminus; also called Alexa Fluor 488-labeled TPX2 peptide; labeled wild-type TPX2 peptide; source: E. coli …

Ends that are not written are not given here.

Common to all, as to conditions: both partners purified
The target in assay [1] is T1, Aurora A_(D274N) kinase domain (human, UniProt O14965 122-403, D274N).
T1 construct: Aurora A kinase, human, kinase domain residues 122-403, kinase dead D274N; theoretical mass 33.8 kDa; Cloned into pHAT5 in frame with a C-terminal 6xHis-tag; also called kinase dead human Aurora A D274N mutant; source: E. coli BL21(DE3), purified (HisTrap HP, Superdex 75 SEC); not shown: His6, C-terminal, kept
T1 sequence (looked up): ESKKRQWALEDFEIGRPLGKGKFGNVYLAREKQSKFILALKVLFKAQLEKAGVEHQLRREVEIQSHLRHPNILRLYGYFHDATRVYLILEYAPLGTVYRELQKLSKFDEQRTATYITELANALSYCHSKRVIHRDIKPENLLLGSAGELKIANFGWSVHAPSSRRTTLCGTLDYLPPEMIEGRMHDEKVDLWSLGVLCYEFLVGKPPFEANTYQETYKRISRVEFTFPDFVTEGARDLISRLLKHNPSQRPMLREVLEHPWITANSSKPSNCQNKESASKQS
The experiment in a line: ITC; itc200, 25°C, 10 mM HEPES pH 7.4, 500 mM NaCl, 0.05% P20; 50 μM titrant into 5 μM Aurora A D274N, 100 μM CK2β peptide or RAD-CK2β into 10 μM CK2α; single-site model. (ITC needs no label: the signal is the heat of the interaction.)

Assay [2] deals with T1, Aurora A_(D274N) kinase domain. The experiment in a line: SPR; Biacore T100, CM5, peptides or cRAD display proteins immobilised through their cysteine (240-400 RU), kinase as analyte 2.5 nM-2.5 μM, 25°C, 10 mM HEPES pH 7.4, 500 mM NaCl, 0.05% P20; 1:1 steady-state affinity model; CK2α data analysed at 200 s post-injection. (SPR reads the build-up and loss of mass on a sensor chip optically.)

In assay [3] the target is B3. Kind of assay: fluorescence polarisation; fluorescence anisotropy, direct titration of Aurora A wild type into 10 nM Alexa Fluor 488-TPX2 peptide, 25°C, HEPES pH 7.4, 0.1 M Mg(CH3COO)2, 100 mM NaCl, 1 mM ATP, 1 mM DTT, 0.01% P20; quadratic single-site equation. A general note: In fluorescence polarisation assays a small probe gives low polarisation when free and higher when bound to something large.

Assay [4] concerns the target T1, Aurora A_(D274N) kinase domain. The experiment in a line: fluorescence polarisation; fluorescence anisotropy, direct titration of kinase (CK2α 2 nM-2 μM; Aurora A D274N 2 nM-1.5 μM) into labelled peptide or display protein; 10 mM HEPES pH 7.4, 500 mM NaCl, 1 mM DTT, 0.05% P20; room temperature; 1:1 model.

B1: linear TPX2_((7–43)) peptide (peptide)
peptide: LSYSYDAPSDFINFSSLDDEGDTQNIDSWFEEKANLENLKGGGCQM
notes: residue before the TPX2 stretch in the printed peptide; TPX2, human, residues 7-43; C-terminal extension of the printed peptide with the cysteine handle; Used free in ITC and immobilised through the cysteine on CM5 in SPR; also called TPX2 peptide; TPX-2 peptide; source: E. coli BL21(DE3), KSI fusion (pET31b), inclusion bodies, Ni-NTA, CNBr cleavage, reverse-phase HPLC
Turning to B1, the Kd in assay [1] amounted to 115 nM; in assay [2] it was 72 nM.

B2: Aurora A wild-type kinase domain (untagged) (domain or fragment)
chain: FEIGRPLGKGKFGNVYLAREKQSKFILALKVLFKAQLEKAGVEHQLRREVEIQSHLRHPNILRLYGYFHDATRVYLILEYAPLGTVYRELQKLSKFDEQRTATYITELANALSYCHSKRVIHRDIKPENLLLGSAGELKIADFGWSVHAPSSRRTTLCGTLDYLPPEMIEGRMHDEKVDLWSLGVLCYEFLVGKPPFEANTYQETYKRISRVEFTFPDFVTEGARDLISRLLKHNPSQRPMLREVLEHPWI
With B2, the affinity in assay [3], expressed as Kd, was 2.1 nM.

B3 registered a Kd in assay [4] of 74 nM.

In general, Kd refers to the free concentration of one partner at which half of the binding sites on the other are occupied at equilibrium, for simple one-to-one binding. A lower Kd goes with tighter binding.

The values above are taken from article PMC5897841, “Development of a multipurpose scaffold for the display of peptide loops” (Protein Engineering, Design and Selection, 2017).
